Measured values published in CN106146655A (UNIV NANCHANG, dated 2016).
Where no end group is shown, it is not given here.

Target: T1, 6×His标签 (组氨酸标签), 人工抗原6×His-OVA (also: covalently coupled to ovalbumin (OVA), chemistry and site not given here)
T1 construct: also called 多组氨酸标签; hexa组氨酸标签
T1 peptide: HHHHHH
Test: indirect phage-ELISA of phage-displayed VHH clones after three rounds of panning on 6×His-OVA

B1: 针对His标签的单域重链抗体 (针对组氨酸标签的纳米抗体) (VHH)
VHH: QVQLVESGGGLVQAGGSLRLSCAVSGFTFSANAMSWVRQAPGKGPEWVSSINRGGASAEYADSVKGRFTISRDDAKNTLYLQMNSLKPEDTALYYCARGNYRGSYFNGPRTYWGRGTQVTVSP
notes: From an alpaca (Lama pacos) immune library; also called 抗His标签单域重链抗体
B1: binds.
